Measured values published in patent US20220073646A1 (Hoffmann-La Roche, published 2022).

Key:
[1] = target: T1, recombinant human OX40 His (human); experiment: SPR, captured IgG, OX40 His analyte
T1 construct: ectodomain with avi and hexahistidine tag; also called human Ox40 avi His
T1 chain: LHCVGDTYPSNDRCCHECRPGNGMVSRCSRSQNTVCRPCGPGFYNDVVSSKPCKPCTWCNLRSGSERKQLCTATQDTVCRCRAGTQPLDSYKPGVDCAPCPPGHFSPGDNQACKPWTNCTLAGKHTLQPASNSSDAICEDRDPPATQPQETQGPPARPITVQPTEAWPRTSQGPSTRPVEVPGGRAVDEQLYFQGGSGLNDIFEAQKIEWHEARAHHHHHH
Description: (§1) All SPR experiments were performed on a Biacore T200 at 25° C. with HBS-EP as running buffer (0.01 M HEPES pH 7.4, 0.15 M NaCl, 3 mM EDTA, 0.005% Surfactant P20, Biacore, Freiburg/Germany).
Setup 2) Anti-human Fc antibody (Biacore, Freiburg/Germany) was directly coupled on a CM5 chip at pH 5.0 using the standard amine coupling kit (Biacore, Freiburg/Germany). The immobilization level was approximately 8000 RU. […] The dissociation was monitored for 120 seconds. Bulk refractive index differences were corrected for by subtracting the response obtained on reference flow cell.

human OX40 on cells [2] = target: T2, human OX40 on cells (human, UniProt P43489 29-277); experiment: cell-based or functional assay
T2 sequence: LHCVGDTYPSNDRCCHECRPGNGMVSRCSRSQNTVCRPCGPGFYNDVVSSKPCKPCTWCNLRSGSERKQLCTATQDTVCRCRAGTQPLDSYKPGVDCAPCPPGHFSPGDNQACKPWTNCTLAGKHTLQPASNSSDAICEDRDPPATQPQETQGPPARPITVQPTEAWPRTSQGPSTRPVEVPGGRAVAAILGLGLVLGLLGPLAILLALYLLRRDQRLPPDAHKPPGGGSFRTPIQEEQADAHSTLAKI

[3] = target: T3, cynomolgus OX40 on activated cynomolgus PBMC (cynomolgus, UniProt P43489 29-214 (human entry)); experiment: flow cytometry, activated cynomolgus CD4 T cells
T3 construct: whole, on cells
T3 chain: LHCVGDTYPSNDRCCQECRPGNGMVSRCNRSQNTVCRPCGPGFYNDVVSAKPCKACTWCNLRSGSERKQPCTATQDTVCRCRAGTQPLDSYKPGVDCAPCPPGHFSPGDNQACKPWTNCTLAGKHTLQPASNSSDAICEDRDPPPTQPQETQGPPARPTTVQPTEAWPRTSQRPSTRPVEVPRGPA
Description: Centrifugation was performed at 520×g, without brake at room temperature for 30 minutes. Adjacent centrifugation at 150×g at room temperature for 15 minutes was performed to reduce platelets count followed by several centrifugation steps with 400×g at room temperature for 10 minutes to wash PBMC with sterile DPBS.
Then, plates were washed four times with 200 μL/well 4° C. FACS buffer. […] Plates where washed twice with 200 μL/well 4° C.

[4] = target: recombinant cynomolgus OX40 Fc(kih) (cynomolgus, UniProt P0DOX5 223-449 = IgG part, biotin on C-terminal Avi tag where used biotinylated); experiment: SPR avidity format, antigen on SA chip
Description: as §1
Immobilization levels up to 800 resonance units (RU) were used.

[5] = target: T4, human fibroblast activation protein (huFAP) on cells (human, UniProt Q12884 1-760); experiment: flow cytometry, NIH/3T3-huFAP clone 39 cells
T4 construct: also called NIH/3T3-huFAP clone 39; NIH/3T3-huFAP clone 19

human OX40 on cells [6] = target: T2, human OX40 on cells; experiment: cell-based or functional assay; remark: listed apart in the source

Kd [1]: 250 nM | koff [1]: 0.57 s⁻¹ | kon [1]: 2.3e+06 M⁻¹ s⁻¹ | EC50 of NFκB activation in HeLa_hOx40_NFκB_luc1 reporter cells with secondary anti-human IgG Fcγ antibody (human OX40 on cells [2]): 3.59 nM | EC50 [3]: 48.2 nM | binding result [4]: binds | binding result [5]: no binding | EC50 of rescuing suboptimal TCR stimulation with plate-immobilized anti-OX40 binder (preactivated human CD4 T cells) (human OX40 on cells [6]): 0.697 nM
B1: 1G4 P329GLALA IgG1 (antibody, V domains shown)
VH: QVQLVQSGAEVKKPGSSVKVSCKASGGTFSSYAISWVRQAPGQGLEWMGGIIPIFGTANYAQKFQGRVTITADKSTSTAYMELSSLRSEDTAVYYCAREYGSMDYWGQGTTVTVSS
VL: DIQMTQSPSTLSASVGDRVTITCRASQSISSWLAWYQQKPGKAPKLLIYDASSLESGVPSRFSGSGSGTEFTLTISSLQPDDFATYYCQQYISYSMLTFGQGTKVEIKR
notes: anti-OX40
